According to patent publication US8530619B2, “Identification of the hepcidin binding site on ferroportin” (University of Utah Research Foundation, priority 2007, dated 2013):
“Also recorded” adds a separate entry of the source. One block for each molecule: values may come before it. No end group written: not given here.

Assays:
I-HBD = target: T1, I-HBD (Homo sapiens, UniProt Q9NP59); assay: Effect of NEM on 125I-hepcidin binding to I-HBD
T1 construct: made in house; host or cells: chemical synthesis
T1 sequence (Q9NP59 with tags, fused parts or gaps limits assumed): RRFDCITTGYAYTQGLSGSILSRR
Description: FIGS. 3A and 3B illustrate that the dissociation of the hepcidin/HBD complex is accelerated by low temperature. In FIG. 3A ^125I-hepcidin was added to I-HBD and a complex was allowed to form at 37° C. The I-HBD/^125I-hepcidin complex was washed and then incubated with an excess of non-radioactive hepcidin. The samples were then incubated at 37° C. (closed circle) or 4° C. (open circle) for the specified times and the amount of radioactivity remaining bound to the I-HBD was determined. The data are expressed as radioactivity at each time point relative to the amount bound at time zero. In FIG. 3B the ^125I-hepcidin/1-HBD complex was allowed to form at 37° C., the complex was then washed and incubated with the indicated concentration of NEM and the amount of bound radioactivity was determined after a four-hour incubation (closed circles). I-HBD alone was also incubated with the specified concentrations of NEM for 2 hours. The I-HBD beads were washed and then ^125I-hepcidin was added at 37° C. and the amount of bound radioactivity was determined after a four-hour incubation (open circles).

hepcidin [1] = target: T2, hepcidin (Homo sapiens, UniProt P81172); assay: Inhibition of hepcidin-mediated Fpn-GFP internalization in HEK293TFpn-GFP cells by peptides preincubated with hepcidin; format: cell-based; conditions: peptide preincubated with hepcidin at equal molar amounts, 37° C.; HEK293TFpn-GFP cells
T2 construct: generates the mature bioactive 25-amino acid form found in plasma and urine; made in house; host or cells: chemical synthesis
T2 sequence (P81172 60-84): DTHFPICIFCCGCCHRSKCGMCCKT
Description: (§1) FIGS. 1A-D illustrate inhibition of hepcidin-mediated Fpn internalization by HBD. […] The HBD peptides and hepcidin were mixed at an equal molar ratio for two hours at 37° C. and then added to cells for one or 24 hours. Fpn internalization at one hour was analyzed by epifluorescence (upper panel) and the percentage of cells showing internalized Fpn-GFP at one and 24 hours was quantified (lower panel). The data represent the standard error of the mean from analyzing over 10 fields (20-30 cells) per sample. FIG. 1B illustrates HBD inhibition of Fpn-GFP internalization. Fpn-GFP expressing cells were incubated with hepcidin, hepcidin preincubated with HBD at 37° C. or hepcidin preincubated with HBD at 4° C. Fpn-GFP internalization at one (black bars) and 24 (grey bars) hours was quantified. The percentage of cells with internalized Fpn is shown. FIG. 1C illustrates that ^125I-hepcidin binds to HBD similarly to unlabeled hepcidin. ^125I-hepcidin was preincubated with HBD at 37° C. or 4° C. for one hour and then the mixture added to cells for one hour (black bars) or twenty-four hours (grey bars). The data are expressed as in FIG. 1B. FIG. 1D illustrates the fact that binding of hepcidin to HBD is reversible by low temperature. In the left panel the samples were treated as in FIG. 1C. In the right panel, the sample was incubated at 37° C. and was placed at 4° C. for four hours. The mixture was then incubated with cells at 37° C. and the internalization of Fpn-GFP was determined after one (black bars) or twenty four hours (grey bars).
(§2) Incubation of HEK293TFpn-GFP cells with hepcidin results in the internalization of cell surface Fpn-GFP (2) and FIG. 1A. […] Previously it was determined that hepcidin binding to Fpn was temperature dependent (2).
(§3) HEK293TFpn-GFP, a stable cell line in which Fpn-Green fluorescent protein (GFP) expression is regulated by the ecdysone promoter has been described previously (2).
(§4) Peptides were synthesized at the DNA/Peptide Core Facility, University of Utah, Salt Lake City, Utah. The peptides were synthesized with two arginines added at the amino and carboxyl terminals. […] Microscope analysis was carried out using an Olympus BX51 microscope (Olympus, Tokyo, Japan). Images were acquired using Picture Frame 2.5 software (Olympus America, East Muskogee, Okla.). All experiments were repeated a minimum of 5 times.
(§5) To characterize the interaction of the HBD with hepcidin, hepcidin was labeled at an iodinateable tyrosine to produce ^125I-hepcidin. Previously, it was shown that ^125I-hepcidin bound to Fpn indistinguishably from hepcidin that lacked the iodinateable tyrosine (2). HBD was then conjugated to agarose beads to produce immobilized HBD (I-HBD), which was then preincubated with ^125I-hepcidin at 37° C. prior to addition to Fpn-GFP expressing cells.

hepcidin [2] = target: T3, hepcidin (Homo sapiens, UniProt P81172, M80Y); assay: as above; format: cell-based; conditions: preincubation at 37° C.
T3 construct: generates the mature bioactive 25-amino acid form found in plasma and urine; made in house; host or cells: chemical synthesis
T3 sequence (P81172 60-84 M80Y): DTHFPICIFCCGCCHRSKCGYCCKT
Description: as §1, §2, §3, §4, §5

Fpn = target: T4, Fpn (Homo sapiens, UniProt Q9NP59); conditions: reference (7); cited from earlier work
T4 sequence (Q9NP59 1-571): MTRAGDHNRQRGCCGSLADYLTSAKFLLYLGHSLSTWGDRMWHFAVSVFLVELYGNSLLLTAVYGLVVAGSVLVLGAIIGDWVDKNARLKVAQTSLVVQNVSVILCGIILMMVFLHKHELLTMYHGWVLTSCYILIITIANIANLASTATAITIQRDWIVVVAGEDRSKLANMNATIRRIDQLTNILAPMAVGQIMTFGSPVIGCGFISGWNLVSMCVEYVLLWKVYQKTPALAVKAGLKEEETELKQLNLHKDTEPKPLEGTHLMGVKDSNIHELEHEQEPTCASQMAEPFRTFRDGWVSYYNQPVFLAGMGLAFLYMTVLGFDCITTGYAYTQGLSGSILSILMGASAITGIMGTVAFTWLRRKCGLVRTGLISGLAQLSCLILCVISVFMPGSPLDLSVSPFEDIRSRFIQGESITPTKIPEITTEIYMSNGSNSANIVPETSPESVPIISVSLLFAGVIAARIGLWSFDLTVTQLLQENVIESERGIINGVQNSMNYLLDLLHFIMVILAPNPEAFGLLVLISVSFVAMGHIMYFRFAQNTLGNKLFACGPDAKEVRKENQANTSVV

[3] = target: T5, I-HBD (hepcidin binding domain of ferroportin) (Homo sapiens, UniProt Q9NP59); assay: Competition with 125I-hepcidin for binding to I-HBD beads
T5 construct: made in house; host or cells: chemical synthesis
Description: (§6) FIGS. 2A-C illustrates that the binding of ^125I-hepcidin to HBD is specific and temperature dependent. In FIG. 2A peptides (HBD, scrambled-HBD or mutant (C326Y HBD) were conjugated to beads and ^125I-hepcidin was added to the bead-immobilized peptides (I-HBD) for 18 hours at 37° C. (black bars) or 4° C. (grey bars). The beads were washed and the amount of ^125I-hepcidin bound to the I-HBD was determined. In FIG. 2B a sub saturating concentration of ^125I-hepcidin (0.6 μg/ml) was incubated with I-HBD for 18 hours at 37° C. in the presence or absence of known concentrations of either hepcidin 25 (Hep 25-open circles) or hepcidin 25 synthesized with a tyrosine substitution at position M21 (Y-Hep 25) and the amount of radioactivity bound to the I-HBD determined. In FIG. 2C sub saturating levels of ^125I-hepcidin were incubated with I-HBD at different temperatures.
The binding of ^125I-hepcidin could be reduced by addition of native non-radioactive hepcidin with an apparent K of approximately 200 nM (FIG. 2B). There was no binding of ^125I-hepcidin to I-HBD at 4° C. and ^125I-hepcidin bound to I-HBD at 37° C. was released when subsequently placed at 4° C. (data not shown).
HBD peptides were immobilized by covalently attaching them to agarose beads. […] The fluid was removed and the radioactivity bound to beads was determined by gamma counting (Perkin/Elmer).

125I-hepcidin = target: T6, 125I-hepcidin (Homo sapiens, UniProt P81172, M80Y); assay: 125I-hepcidin binding to bead-immobilized peptides; conditions: 37° C.; listed as HBD peptide containing the human Fpn mutation C326Y
T6 construct: hepcidin 25 synthesized with a tyrosine substitution at position M21 (Y-Hep 25); made in house; host or cells: chemical synthesis
T6 sequence (P81172 60-84 M80Y): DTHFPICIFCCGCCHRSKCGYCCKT
Description: as §6, with “In FIG. 2C sub saturating levels of ^125I-hepcidin were incubated with I-HBD at different temperatures.” left out
FIGS. 3A and 3B illustrate that the dissociation of the hepcidin/HBD complex is accelerated by low temperature. […] (open circle) for the specified times and the amount of radioactivity remaining bound to the I-HBD was determined. The data are expressed as radioactivity at each time point relative to the amount bound at time zero. In FIG. 3B the ^125I-hepcidin/1-HBD complex was allowed to form at 37° C., the complex was then washed and incubated with the indicated concentration of NEM and the amount of bound radioactivity was determined after a four-hour incubation (closed circles). […]

serum hepcidin = assay: Serum hepcidin levels after LPS injection, I-HBD assay; format: in vivo; conditions: LPS injected mice
Description: FIGS. 5A-E illustrate the hepcidin concentrations in mice and human sera. In FIG. 5A, different concentrations of serum were incubated with a known amount of ^125I-hepcidin and I-HBD for 18 hours at 37° C. The beads were washed and radioactivity bound to the beads was determined. A standard curve was determined by incubating known amounts of hepcidin with ^125I-hepcidin and HBD-beads. In FIG. 5B, sera was obtained from wild type mice (C57/Bl6) or from mice that were homozygous for a targeted gene deletion in HFE or homozygous or heterozygous for a targeted gene deletion in the HAMP gene. […] The beads were washed and the amount of radioactivity was determined. Serum hepcidin levels were calculated relative to a standard curve. […] Sera was obtained from the mice 10 hours later and the hepcidin concentration was determined as described in FIG. 5A. In FIG. 5D hepcidin levels were measured in different strains of mice. […] Hepcidin levels were determined as in FIG. 5A. The serum iron (SI), […] (TIBC) and transferrin saturation was calculated as described herein. Each sample was analyzed in triplicate and the error bars represent the standard deviation
HBD peptides were immobilized by covalently attaching them to agarose beads. […] The fluid was removed and the radioactivity bound to beads was determined by gamma counting (Perkin/Elmer). […]

Molecule: CCN1C(=O)C=CC1=O [NEM, N-ethylmaleimide]
125I-hepcidin binding activity of I-HBD (I-HBD; I-HBD treated with NEM before 125I-hepcidin): loss of ^125I-hepcidin binding activity
125I-hepcidin/I-HBD complex (I-HBD; NEM added after complex formed at 37° C.): the complex was not affected

hepcidin-mediated internalization of Fpn-GFP (hepcidin [1]): did not prevent Fpn-internalization
Fpn-GFP internalization activity of 125I-hepcidin after preincubation with peptide (hepcidin [2]): did not affect
Molecule: HBD Scramble: same amino acid composition as HBD in randomized sequence, RR-ILSLFDAYCTGTQITGSGSY-RR (SEQ ID NO: 3) (RRILSLFDAYCTGTQITGSGSYRR; HBD Scramble)

Molecule: Hep20: hepcidin derivative with the five amino terminal amino acids deleted (ICIFCCGCCHRSKCGMCCKT; not fully specified (N-terminus, C-terminus); ends and bridges not checked)
binding to Fpn (Fpn): do not bind to Fpn
binding to HBD / I-HBD [3]: nor do they bind to HBD; also recorded: does not bind to I-HBD

125I-hepcidin binding to the peptide (125I-hepcidin): did not bind ^125I-hepcidin
Fpn-GFP internalization activity of 125I-hepcidin after preincubation with peptide (hepcidin [2]): did not affect
Molecule: HBD Mutant: Fpn peptide containing the C326Y mutation, RR-FDYITTGYAYTQGLSGSILS-RR (SEQ ID NO: 4) (RRFDYITTGYAYTQGLSGSILSRR; HBD Mutant)
hepcidin-mediated internalization of Fpn-GFP (hepcidin [1]): did not prevent hepcidin mediated Fpn-GFP internalization

Molecule: lipopolysaccharide [LPS]
hepcidin levels in sera (serum hepcidin): two-fold increase
